B1: Flagellar motor switch protein FliM (Escherichia coli (strain K12)), P06974 (parent)
chain: MGDSILSQAEIDALLNGDSEVKDEPTASVSGESDIRPYDPNTQRRVVRERLQALEIINERFARHFRMGLFNLLRRSPDITVGAIRIQPYHEFARNLPVPTNLNLIHLKPLRGTGLVVFSPSLVFIAVDNLFGGDGRFPTKVEGREFTHTEQRVINRMLKLALEGYSDAWKAINPLEVEYVRSEMQVKFTNITTSPNDIVVNTPFHVEIGNLTGEFNICLPFSMIEPLRELLVNPPLENSRNEDQNWRDNLVRQVQHSQLELVANFADISLRLSQILKLNPGDVLPIEKPDRIIAHVDGVPVLTSQYGTLNGQYALRIEHLINPILNSLNEEQPK
partner: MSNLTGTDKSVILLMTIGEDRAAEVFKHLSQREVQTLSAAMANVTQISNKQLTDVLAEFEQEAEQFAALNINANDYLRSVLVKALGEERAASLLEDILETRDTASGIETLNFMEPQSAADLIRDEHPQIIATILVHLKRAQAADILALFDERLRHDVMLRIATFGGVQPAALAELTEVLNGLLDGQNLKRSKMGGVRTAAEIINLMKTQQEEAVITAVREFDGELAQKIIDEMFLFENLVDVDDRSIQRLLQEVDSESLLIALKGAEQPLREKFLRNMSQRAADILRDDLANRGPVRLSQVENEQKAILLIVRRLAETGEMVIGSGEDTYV
B2: Flagellar motor switch protein FliG (Escherichia coli (strain K12)), P0ABZ1 (parent)
chain: B1 partner
partner: B1 chain

Variants of: B1
Conditions: with flig_ecoli fliG
With L160E the “effect of a mutation on the interaction” value was “decreasing interaction”.

Variants of: B1
Conditions: with flig_ecoli fliG, P0ABZ1
For T149C, the “effect of a mutation on the interaction” value was “increasing interaction”.

Variants of: B1
Conditions: with flig_ecoli fliG
Remark: another data set of the same source
T149D was tested, and the “effect of a mutation on the interaction” value was “decreasing interaction”.

Variants of: B1
Conditions: with flig_ecoli fliG
Remark: another data set of the same source
For V153D, the “effect of a mutation on the interaction” value was “decreasing interaction”.

Variants of: B1
Conditions: with flig_ecoli fliG
Remark: another data set of the same source
In the case of V153C, the “effect of a mutation on the interaction” value is reported as “increasing interaction”.

Variants of: B1
Conditions: with flig_ecoli fliG
Remark: another data set of the same source
In the case of F131D, the “effect of a mutation on the interaction” value is reported as “disrupting interaction”.

Variants of: B1
Conditions: with flig_ecoli fliG, P0ABZ1
Remark: another data set of the same source
With F131C the “effect of a mutation on the interaction” value was “increasing interaction”.

Variants of: B1
Conditions: with flig_ecoli fliG
Remark: another data set of the same source
In the case of G133W, the “effect of a mutation on the interaction” value is reported as “disrupting interaction”.

Variants of: B1
Conditions: with flig_ecoli fliG
Remark: another data set of the same source
With R156D the “effect of a mutation on the interaction” value was “disrupting interaction”.

Variants of: B2
Conditions: with flim_ecoli fliM, P06974
M206C was tested, and the “effect of a mutation on the interaction” value was “increasing interaction”.

Variants of: B2
Conditions: with flim_ecoli fliM
For L225W, the “effect of a mutation on the interaction” value was “disrupting interaction”.

Variants of: B2
Conditions: with flim_ecoli fliM
Remark: another data set of the same source
L225C was tested, and the “effect of a mutation on the interaction” value was “increasing interaction”.

Variants of: B2
Conditions: with flim_ecoli fliM, P06974
Remark: another data set of the same source
In the case of I129C, the “effect of a mutation on the interaction” value is reported as “increasing interaction”.

Variants of: B2
Conditions: with flim_ecoli fliM
Remark: another data set of the same source
With I202W the “effect of a mutation on the interaction” value was “disrupting interaction”.
